Values of other authors, collected in article PMC6440808.
Where two headings read alike, the source gives them in different places.

Legend:
C4b (Homo sapiens) [1] = molecular target: C4b (Homo sapiens) (UniProt P0C0L4)
C4b (Homo sapiens) [2] = molecular target: C4b (Homo sapiens) (UniProt P0C0L4); remark: listed apart in the source

Sequence of UniProt P0C0L4 (P0C0L4 20-1744, chain 1 of 2): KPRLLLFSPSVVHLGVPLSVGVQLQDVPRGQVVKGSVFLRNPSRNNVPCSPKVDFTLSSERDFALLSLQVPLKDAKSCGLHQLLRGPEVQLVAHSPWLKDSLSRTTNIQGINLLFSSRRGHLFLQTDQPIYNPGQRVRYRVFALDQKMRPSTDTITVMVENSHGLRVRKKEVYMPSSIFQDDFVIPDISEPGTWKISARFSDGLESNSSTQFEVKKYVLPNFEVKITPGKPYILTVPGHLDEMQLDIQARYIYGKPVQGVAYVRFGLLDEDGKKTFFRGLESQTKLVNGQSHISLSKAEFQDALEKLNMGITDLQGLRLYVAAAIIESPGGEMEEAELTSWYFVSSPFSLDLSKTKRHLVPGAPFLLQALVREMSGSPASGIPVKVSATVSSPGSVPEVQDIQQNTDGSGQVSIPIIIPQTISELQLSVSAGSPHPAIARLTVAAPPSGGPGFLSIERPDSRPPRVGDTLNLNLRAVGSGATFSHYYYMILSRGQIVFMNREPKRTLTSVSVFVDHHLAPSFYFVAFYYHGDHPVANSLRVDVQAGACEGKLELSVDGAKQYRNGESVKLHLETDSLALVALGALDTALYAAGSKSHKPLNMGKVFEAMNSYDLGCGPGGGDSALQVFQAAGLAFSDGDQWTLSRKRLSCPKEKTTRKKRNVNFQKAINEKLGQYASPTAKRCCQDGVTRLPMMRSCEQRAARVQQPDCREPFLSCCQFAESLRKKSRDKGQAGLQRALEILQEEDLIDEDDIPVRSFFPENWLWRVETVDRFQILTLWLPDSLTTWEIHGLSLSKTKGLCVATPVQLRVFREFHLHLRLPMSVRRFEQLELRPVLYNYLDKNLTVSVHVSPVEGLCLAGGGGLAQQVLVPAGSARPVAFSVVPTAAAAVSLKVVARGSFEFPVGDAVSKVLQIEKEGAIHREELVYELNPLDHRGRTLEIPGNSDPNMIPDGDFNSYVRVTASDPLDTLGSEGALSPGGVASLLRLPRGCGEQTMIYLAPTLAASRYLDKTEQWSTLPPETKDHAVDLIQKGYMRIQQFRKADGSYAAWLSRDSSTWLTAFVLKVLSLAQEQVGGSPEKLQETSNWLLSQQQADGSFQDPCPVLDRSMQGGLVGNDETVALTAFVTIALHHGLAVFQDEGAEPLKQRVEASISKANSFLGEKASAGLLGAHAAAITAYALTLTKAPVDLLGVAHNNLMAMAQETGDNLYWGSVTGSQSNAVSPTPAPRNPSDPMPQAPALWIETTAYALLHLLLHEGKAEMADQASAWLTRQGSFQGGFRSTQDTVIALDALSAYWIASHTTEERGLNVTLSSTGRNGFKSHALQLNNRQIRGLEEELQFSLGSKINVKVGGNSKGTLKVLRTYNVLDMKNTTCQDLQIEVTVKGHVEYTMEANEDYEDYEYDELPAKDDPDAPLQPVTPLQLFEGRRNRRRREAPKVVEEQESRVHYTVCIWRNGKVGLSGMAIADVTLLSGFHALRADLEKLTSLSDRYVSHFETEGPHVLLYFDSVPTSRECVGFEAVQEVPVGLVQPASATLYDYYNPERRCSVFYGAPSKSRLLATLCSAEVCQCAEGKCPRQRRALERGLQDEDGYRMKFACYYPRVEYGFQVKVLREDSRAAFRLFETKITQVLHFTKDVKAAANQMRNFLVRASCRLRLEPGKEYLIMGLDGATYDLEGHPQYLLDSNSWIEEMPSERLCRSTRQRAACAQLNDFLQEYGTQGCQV
Sequence of UniProt P0C0L4 (P0C0L5 20-1744, chain 2 of 2, further chain): as the sequence (P0C0L4 20-1744, chain 1 of 2) above, with A888T, D1054G, P1101L, C1102S, L1105I, D1106H, N1157S, V1188A, L1191R, S1267A counted along it

Row | Substance | Kd (C4b (Homo sapiens) [1]) | Kd (C4b (Homo sapiens) [2])
1 | Eap domain 3 or 4 (individual) domain 3 / domain 4 (from UniProt Q2FWW1) | 40 µM | 
2 | Eap34 domains 3-4 (from UniProt Q99QS1) |  | 0.525 µM
